# B1: Coiled-coil domain-containing protein 120 (Homo sapiens), Q96HB5-4 (parent)
# chain: MRREPRYQGQVGPDIHTDSERTLSSHQPRPLDSTKMEVKGQLISSPTFNAPAALFGEAAPQVKSERLRGLLDRQRTLQEALSLKLQELRKVCLQEAELTGQLPPECPLEPGERPQLVRRRPPTARAYPPPHPNQAHHSLCPAEELALEALEREVSVQQQIAAAARRLALAPDLSTEQRRRRRQVQADALRRLHELEEQLRDVRARLGLPVLPLPQPLPLSTGSVITTQGVCLGMRLAQLSQEDVVLHSESSSLSESGASHDNEEPHGCFSLAERPSPPKAWDQLRAVSGGSPERRTPWKPPPSDLYGDLKSRRNSVASPTSPTRSLPRSASSFEGRSVPATPVLTRGAGPQLCKPEGLHSRQWSGSQDSQMGFPRADPASDRASLFVARTRRSNSSEALLVDRAAGGGAGSPPAPLAPSASGPPVCKSSEVLYERPQPTPAFSSRTAGPPDPPRAARPSSAAPASRGAPRLPPVCGDFLLDYSLDRGLPRSGGGTGWGELPPAAEVPGPLSRRDGLLTMLPGPPPVYAADSNSPLLRTKDPHTRATRTKPCGLPPEAAEGPEVHPNPLLWMPPPTRIPSAGERSGHKNLALEGLRDWYIRNSGLAAGPQRRPVLPSVGPPHPPFLHARCYEVGQALYGAPSQAPLPHSRSFTAPPVSGRYYADFLYPPELSARLSDLTLEGEQSSSSDTQTPGTLV
# partner: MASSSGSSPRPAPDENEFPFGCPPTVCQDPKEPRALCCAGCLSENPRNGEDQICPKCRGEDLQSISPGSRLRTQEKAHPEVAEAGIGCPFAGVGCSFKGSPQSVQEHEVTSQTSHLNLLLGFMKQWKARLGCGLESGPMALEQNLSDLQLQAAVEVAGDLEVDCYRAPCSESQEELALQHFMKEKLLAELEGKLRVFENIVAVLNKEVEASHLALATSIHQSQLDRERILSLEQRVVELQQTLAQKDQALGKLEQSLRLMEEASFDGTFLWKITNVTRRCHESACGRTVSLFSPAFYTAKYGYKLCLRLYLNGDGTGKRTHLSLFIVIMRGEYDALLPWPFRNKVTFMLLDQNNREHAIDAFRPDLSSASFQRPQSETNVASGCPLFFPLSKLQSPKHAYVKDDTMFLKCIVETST
# B2: Ribosome assembly protein METTL17, mitochondrial (Homo sapiens), Q9H7H0 (parent)
# chain: MAAALKCLLTLGRWCPGLGVAPQARALAALVPGVTQVDNKSGFLQKRPHRQHPGILKLPHVRLPQALANGAQLLLLGSAGPTMENQVQTLTSYLWSRHLPVEPEELQRRARHLEKKFLENPDLSQTEEKLRGAVLHALRKTTYHWQELSYTEGLSLVYMAARLDGGFAAVSRAFHEIRARNPAFQPQTLMDFGSGTGSVTWAAHSIWGQSLREYMCVDRSAAMLVLAEKLLKGGSESGEPYIPGVFFRQFLPVSPKVQFDVVVSAFSLSELPSKADRTEVVQTLWRKTGHFLVLVENGTKAGHSLLMDARDLVLKGKEKSPLDPRPGFVFAPCPHELPCPQLTNLACSFSQAYHPIPFSWNKKPKEEKFSMVILARGSPEEAHRWPRITQPVLKRPRHVHCHLCCPDGHMQHAVLTARRHGRDLYRCARVSSWGDLLPVLTPSAFPPSTAQDPSES
# partner: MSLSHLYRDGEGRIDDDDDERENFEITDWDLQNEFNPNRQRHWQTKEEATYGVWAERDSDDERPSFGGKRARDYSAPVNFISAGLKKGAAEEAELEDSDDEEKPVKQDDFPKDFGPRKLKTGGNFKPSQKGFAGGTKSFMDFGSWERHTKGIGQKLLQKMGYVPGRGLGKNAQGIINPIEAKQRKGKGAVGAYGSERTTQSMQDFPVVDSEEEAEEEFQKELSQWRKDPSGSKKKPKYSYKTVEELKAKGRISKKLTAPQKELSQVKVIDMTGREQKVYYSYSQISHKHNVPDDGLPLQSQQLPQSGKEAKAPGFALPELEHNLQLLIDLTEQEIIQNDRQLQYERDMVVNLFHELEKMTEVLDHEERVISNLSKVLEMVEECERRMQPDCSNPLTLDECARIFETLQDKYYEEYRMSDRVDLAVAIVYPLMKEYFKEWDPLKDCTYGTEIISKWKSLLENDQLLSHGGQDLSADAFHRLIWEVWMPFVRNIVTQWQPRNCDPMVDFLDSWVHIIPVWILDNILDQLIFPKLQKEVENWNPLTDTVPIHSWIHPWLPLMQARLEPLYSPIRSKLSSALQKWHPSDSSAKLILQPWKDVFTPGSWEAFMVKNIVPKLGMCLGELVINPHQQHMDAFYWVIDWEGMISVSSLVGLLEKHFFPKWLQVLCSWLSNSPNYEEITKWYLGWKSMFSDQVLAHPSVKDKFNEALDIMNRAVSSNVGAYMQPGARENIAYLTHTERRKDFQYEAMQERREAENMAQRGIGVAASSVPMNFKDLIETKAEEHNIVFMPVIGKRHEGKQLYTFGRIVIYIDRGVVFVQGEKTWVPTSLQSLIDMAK
# B3: Ribosome assembly protein METTL17, mitochondrial (Homo sapiens), Q9H7H0 (parent)
# chain: B2 chain
# partner: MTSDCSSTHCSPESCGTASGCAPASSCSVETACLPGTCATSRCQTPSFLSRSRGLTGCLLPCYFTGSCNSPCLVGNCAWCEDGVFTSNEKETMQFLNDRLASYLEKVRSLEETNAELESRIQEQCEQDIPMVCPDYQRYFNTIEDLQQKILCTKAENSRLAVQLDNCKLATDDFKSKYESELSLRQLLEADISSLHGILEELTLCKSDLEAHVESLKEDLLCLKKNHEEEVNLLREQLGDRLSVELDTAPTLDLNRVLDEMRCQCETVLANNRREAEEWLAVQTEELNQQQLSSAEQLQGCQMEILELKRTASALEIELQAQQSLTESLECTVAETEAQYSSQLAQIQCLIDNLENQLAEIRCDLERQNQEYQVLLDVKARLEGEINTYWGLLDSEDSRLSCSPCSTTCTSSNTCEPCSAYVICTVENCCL
# B4: Protein VAC14 homolog (Homo sapiens), Q08AM6 (parent)
# chain: MNPEKDFAPLTPNIVRALNDKLYEKRKVAALEIEKLVREFVAQNNTVQIKHVIQTLSQEFALSQHPHSRKGGLIGLAACSIALGKDSGLYLKELIEPVLTCFNDADSRLRYYACEALYNIVKVARGAVLPHFNVLFDGLSKLAADPDPNVKSGSELLDRLLKDIVTESNKFDLVSFIPLLRERIYSNNQYARQFIISWILVLESVPDINLLDYLPEILDGLFQILGDNGKEIRKMCEVVLGEFLKEIKKNPSSVKFAEMANILVIHCQTTDDLIQLTAMCWMREFIQLAGRVMLPYSSGILTAVLPCLAYDDRKKSIKEVANVCNQSLMKLVTPEDDELDELRPGQRQAEPTPDDALPKQEGTASGGPDGSCDSSFSSGISVFTAASTERAPVTLHLDGIVQVLNCHLSDTAIGMMTRIAVLKWLYHLYIKTPRKMFRHTDSLFPILLQTLSDESDEVILKDLEVLAEIASSPAGQTDDPGPLDGPDLQASHSELQVPTPGRAGLLNTSGTKGLECSPSTPTMNSYFYKFMINLLKRFSSERKLLEVRGPFIIRQLCLLLNAENIFHSMADILLREEDLKFASTMVHALNTILLTSTELFQLRNQLKDLKTLESQNLFCCLYRSWCHNPVTTVSLCFLTQNYRHAYDLIQKFGDLEVTVDFLAEVDKLVQLIECPIFTYLRLQLLDVKNNPYLIKALYGLLMLLPQSSAFQLLSHRLQCVPNPELLQTEDSLKAAPKSQKADSPSIDYAELLQHFEKVQNKHLEVRHQRSGRGDHLDRRVVL
# Variants of: B1
# Details: with traf1_human TRAF1, Q13077
row,Variant,effect of a mutation on the interaction
1,R346W,with no effect

# Variants of: B2
# Details: with tfp11_human TFIP11, Q9UBB9
row,Variant,effect of a mutation on the interaction
1,R212H,disrupting interaction strength

# Variants of: B3
# Details: with KRT40, Q6A162
row,Variant,effect of a mutation on the interaction
1,R212H,with no effect

# Variants of: B4
# Details: with fnd3b_human FNDC3B
row,Variant,effect of a mutation on the interaction
1,A127S,with no effect

# Variants of: B4
# Details: with at2l2_human PHYKPL
row,Variant,effect of a mutation on the interaction
1,A127S,with no effect

# Variants of: B4
# Details: with cd209_human CD209, Q9NNX6
# Sequence of cd209_human CD209, Q9NNX6 (Q9NNX6 whole entry): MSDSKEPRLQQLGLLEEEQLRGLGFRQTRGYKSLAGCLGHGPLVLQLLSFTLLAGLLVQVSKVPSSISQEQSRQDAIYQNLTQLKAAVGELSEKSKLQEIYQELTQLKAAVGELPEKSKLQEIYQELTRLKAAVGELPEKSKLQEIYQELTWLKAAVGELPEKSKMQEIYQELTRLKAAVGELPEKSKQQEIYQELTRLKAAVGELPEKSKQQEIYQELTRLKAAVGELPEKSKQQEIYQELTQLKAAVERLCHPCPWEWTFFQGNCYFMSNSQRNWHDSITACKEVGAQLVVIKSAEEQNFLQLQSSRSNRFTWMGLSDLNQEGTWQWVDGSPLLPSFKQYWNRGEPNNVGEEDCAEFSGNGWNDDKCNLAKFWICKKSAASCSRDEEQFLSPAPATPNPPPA
row,Variant,effect of a mutation on the interaction
1,A127S,with no effect

# Variants of: B4
# Details: with myome_human PDE4DIP
row,Variant,effect of a mutation on the interaction
1,A127S,with no effect

# Variants of: B4
# Details: with co8a1_human COL8A1, P27658
# Sequence of co8a1_human COL8A1, P27658 (P27658 whole entry): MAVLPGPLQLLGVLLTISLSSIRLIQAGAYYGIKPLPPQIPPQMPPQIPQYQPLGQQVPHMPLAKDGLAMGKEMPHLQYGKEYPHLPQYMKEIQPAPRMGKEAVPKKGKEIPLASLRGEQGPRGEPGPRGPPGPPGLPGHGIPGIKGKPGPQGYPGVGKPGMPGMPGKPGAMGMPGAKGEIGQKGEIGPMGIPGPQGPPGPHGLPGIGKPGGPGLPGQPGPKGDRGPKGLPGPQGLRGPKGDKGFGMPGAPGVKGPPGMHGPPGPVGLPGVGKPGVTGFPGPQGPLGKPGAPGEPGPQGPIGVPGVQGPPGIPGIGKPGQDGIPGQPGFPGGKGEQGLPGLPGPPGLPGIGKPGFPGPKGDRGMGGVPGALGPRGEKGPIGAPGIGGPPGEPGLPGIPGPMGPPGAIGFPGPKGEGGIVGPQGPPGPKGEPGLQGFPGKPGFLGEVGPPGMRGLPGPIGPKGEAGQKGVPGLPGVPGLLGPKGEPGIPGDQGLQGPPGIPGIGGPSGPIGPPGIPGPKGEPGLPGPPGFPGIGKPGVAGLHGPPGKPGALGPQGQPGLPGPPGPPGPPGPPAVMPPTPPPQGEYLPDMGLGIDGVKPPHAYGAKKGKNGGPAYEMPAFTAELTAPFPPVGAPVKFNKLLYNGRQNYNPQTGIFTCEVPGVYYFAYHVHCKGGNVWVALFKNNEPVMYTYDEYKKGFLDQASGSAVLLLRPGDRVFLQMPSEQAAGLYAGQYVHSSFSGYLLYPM
row,Variant,effect of a mutation on the interaction
1,A127S,with no effect

# Variants of: B4
# Details: with znf34_human ZNF34, Q8IZ26
# Sequence of znf34_human ZNF34, Q8IZ26 (Q8IZ26 whole entry): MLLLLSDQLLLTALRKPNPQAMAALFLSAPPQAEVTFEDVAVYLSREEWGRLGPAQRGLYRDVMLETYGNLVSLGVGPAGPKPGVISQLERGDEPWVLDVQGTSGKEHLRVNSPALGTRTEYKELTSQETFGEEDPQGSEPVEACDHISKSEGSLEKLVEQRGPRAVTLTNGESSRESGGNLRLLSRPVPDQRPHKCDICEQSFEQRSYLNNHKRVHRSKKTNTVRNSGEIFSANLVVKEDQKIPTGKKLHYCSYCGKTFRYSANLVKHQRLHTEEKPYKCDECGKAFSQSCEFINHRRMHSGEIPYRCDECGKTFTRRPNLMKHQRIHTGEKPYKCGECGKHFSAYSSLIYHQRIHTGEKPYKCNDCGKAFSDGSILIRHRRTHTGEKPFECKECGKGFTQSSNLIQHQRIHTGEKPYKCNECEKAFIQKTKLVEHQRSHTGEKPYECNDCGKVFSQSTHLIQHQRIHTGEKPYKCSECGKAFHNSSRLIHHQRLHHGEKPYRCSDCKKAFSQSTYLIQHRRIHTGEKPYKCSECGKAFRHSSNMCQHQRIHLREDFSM
row,Variant,effect of a mutation on the interaction
1,A127S,with no effect

# Variants of: B4
# Details: with ntaq1_human NTAQ1, Q96HA8
# Sequence of ntaq1_human NTAQ1, Q96HA8 (Q96HA8 whole entry): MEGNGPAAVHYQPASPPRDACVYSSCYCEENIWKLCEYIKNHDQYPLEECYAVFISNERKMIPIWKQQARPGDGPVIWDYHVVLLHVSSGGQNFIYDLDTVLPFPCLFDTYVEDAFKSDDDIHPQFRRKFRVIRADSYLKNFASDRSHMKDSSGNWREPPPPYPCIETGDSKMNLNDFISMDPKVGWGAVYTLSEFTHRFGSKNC
row,Variant,effect of a mutation on the interaction
1,A127S,with no effect

# Variants of: B4
# Details: with casp1_human CASP1, P29466
# Sequence of casp1_human CASP1, P29466 (P29466 whole entry): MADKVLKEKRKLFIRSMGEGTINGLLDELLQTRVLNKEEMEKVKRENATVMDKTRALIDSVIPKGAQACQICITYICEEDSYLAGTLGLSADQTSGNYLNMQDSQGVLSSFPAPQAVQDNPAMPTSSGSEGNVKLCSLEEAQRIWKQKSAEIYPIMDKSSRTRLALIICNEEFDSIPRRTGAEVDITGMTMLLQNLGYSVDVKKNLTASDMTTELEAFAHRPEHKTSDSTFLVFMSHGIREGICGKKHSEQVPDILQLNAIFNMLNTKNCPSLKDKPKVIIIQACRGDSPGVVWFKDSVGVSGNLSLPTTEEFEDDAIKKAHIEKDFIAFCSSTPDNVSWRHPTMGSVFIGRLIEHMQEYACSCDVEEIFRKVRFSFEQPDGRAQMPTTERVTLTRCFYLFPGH
row,Variant,effect of a mutation on the interaction
1,A127S,with no effect

# Variants of: B4
# Details: with fyv1_human PIKFYVE
row,Variant,effect of a mutation on the interaction
1,A127S,with no effect

# Reference: IntAct's records for PubMed 29892012
